Test: soluble on expression in E. coli; label from the status in PepcDB or PDB records

Sequence	soluble on expression in E. coli
MSVIYQTTITRIGQSAKEALGEQMLITFREGAPADIEEFCFIHCHGELTGALQPGARCELGQHCYPVTAVGSVAEQNLRELGHITLRFDGLREAEFPGTVHVAGPVPDDIAPGCILTFVA	not soluble
MGSDKIHHHHHHMAAVLLTGHGGPEKLVYRTDVKVPSPDPGEVLVEVSACGMNNTDVWVRQGAYGTEEDAAAVSTWRRQGNTLVFPRIQGTDTVGTIVSVGEGVSPERIGERVMVDFSIYNRDDDSLADIDYMGHGRDGGYAEYQTVPAENAHVVDTDMSDVELATFCCAYLTGEQMLERAGLKAGERVLVTGASGGVGSGIVQLARARGAIPYAVVGKGKEQAVLDIGAEAVITRGVADLPRAVAEVTGGQPIDVVADLVGGAIFNDLLRILRPEGRYTTAGAIAGPVVQLDLRTMYLKQLQLHGSSQGTRADFRRIVGYIEAKKIRPLVGGVYRLSDFHRAQADFVAKDFVGKLVVVPDAIAERQA	not soluble
MGSDKIHHHHHHMDLTHIHPEFRHILGMSDKDRMAFLDEPRWIGYAQANRLLDNLRSLMEKPVRPRMPNLLIVGDSNNGKTTVIRRFQKLHGEGYVNEDAEPVKPVIVSEAPPSADEKGLYIAILERFWTPYRATDSASKLRYQVVHLMRDCHVRILVIDEFHSLLTGTVTKQREVMNAIKLLCNELAIPIVGVGIREAVRVLHTDPQHASRFDVVTLPPWELNPEFQQLVASFERVLPLKKPSLLHQSETVSLLFAISEGNLGNLHRLLVECAVEAIKTGTEKIDKSIIEGKQWLRPTHGIRELV	not soluble
MGSDKIHHHHHHAVSAEEAKELGHKLTEFGAEKAGNADGSIPPYTGGVKDLAIPADFKPGSGHYPDPFKDEKPLVSITKANEAQYAEFLMPGTKALLERLPGFRIDVYKTHRTMAYPDWVLKNTVGCARTAKLVGSVTGDGVEGAFACIPFPIPKNGYEVMWNQNLRYQGVRTDFRFRTILIDESGHKTLMGDNETQFIYQYYDRNGSKLPDNFFRTGFTRFYGPPSEVGMMTLAKYSINDGTDDDTTWIYMPGQRRVRVAPEYKYDTPMAAIGGTLLFDEVGGFQGRMDRFDFKLVGKKEMFVPYNNYRAYNSSDLVGDKYANPDDVRWEKHRVWVVEATLKPGERNIYSHRTYYIDEDTWLIVGYEAYDQSNALYRAGYTLDIVPYDKPRVGQPNAIMYDLTKGNYSVTADQGTPSQHMIPFDDLPNMGNYNTQALLNAGVR	not soluble
MSLRIGVAGVGKLGEFHTNLLKQIAAEASDVEFSGVFDLNPERLQEIGKKYGVACFSTLEELAASCDAAVIATTTSSHYAIARQLLEARLHLFIEKPITATLEEADKLIRIEQEKGLTIQVGHIERFNPALLAVEPYIGEPMYIQAERLSGFSRRVTDVSVVLDLMIHDIDLVLSLIKSDIRSIAASGVKVFSNELDMATARIEFENGAIANVTASRLSRSKLRKMRFFTRNPKSYASLDFTSGKSEVFRLVPPDQLSSKNPIKNFATKKILEQFGEIQESLKEMALDYVSPDVPKINALKEELEQFIDAIRKGKPAKVTSEEGRRALMVAGKITDEIRNNTADLDEGHHHHHH	soluble
MPQDMSQFLQVFFEETEEHLATLELLLIGLDLDRPDSETLHGIFRAAHSIKGSSGMFGFDDITAVTHELETLLDRIRCGQMHLRPDMISSFLEARDVLQRLLDAHRSGRPDPGVPLLETVERLRGWLRVPEQEAAEEGFGLFDDAPARETADDDAFGFFDEGPGAPERAAAPEAFGLFDEAPGAPAASEAFGLFDEAPGSPPAEERAFGLFDGAPGSPAAPSAPAQAVAAPARGAVAPVRGDGESGSIRVSVEKIDSLINLVGELVITQAMLGQLGEQLDPSRHERLQHALAQLEHNTRDLQESVMSIRMLPINFIFSRFPRLVRDTATRLGKQVELHLHGEHTELDKSVIEKLSDPLTHIVRNSIDHGIETPAERLAAGKPASGTVKLAASHQGGSVVVEVSDDGRGLSRPRILAKARERNLPVHDGMSDAEVWQLVFMPGFSTAETVTELSGRGVGMDVVKRNIGAMGGRIDIDSAPGMGTRIGIRLPLTLAILDGLIVAVEAVNYVIPLTYIVESLQARSDDVRGLGGEDNAMIRVRGEYLPLFSLHELLRIGGEAPAPEQGIVVILESEGRSFALQVDELVGQQQVVIKSLEQNFRRVEGIAGATIMGDGSVALILDVDALPRLAAREDTADE	not soluble
MAKPPPGKSSGRGSINDDEGKIEVESGDIPHVTDTEIKDAAEKVRETAVSKGKSERDKAEGDYTIMNPDSMIRPDFASDEEIEEQAKWIPGRFEPYITPNPLDIETLVKRADTIATVFNCSGNNLTDSRLSGAYEIAMTRSDEWEGKAGENFEKYMASLPTIMGNHGKVANMLQIEAQKMIELYKNRRKGAKDIADQAVKAIEAIDDSKGEGLE	not soluble
MWLFEESAVGFCSNSGVIDNKHAGYTGTGFIDTENAVGASIVWSLSAASAKTYTAQIRFGNGGTSARRATVVVNDSQIKTLDFPTNSNWTQWQTVNVDIPLKAGTNSIKLVAETADGLANIDSIRVTGNGITPAACPLEHHHHHH	soluble
MGSDKIHHHHHHMPNVNLDALIPREDFEVIENNSRASSFNQNVSVKDLEKGEFFYAGLRKPDFQRETSDWTDEQLCEFIQSFIDGDLIPAVILWNSGPYNFVIDGAHRLGALISWINDDYGDGHISQKFFNNEIDDEQKDIANKTRERIKNTVKPYSDYKKVILDSSDCDRGILEKALSLGRTSIQLQWVTGGAEKAELSFFKINQKASKINDTEIELLKSRRKAFAIASRAIIRAGTGHQYWSKFDNDVMQNIETMAKEIHSLIFLPKVSGAVRTLDLPLVKKHNSPQTNSFIFDLVKKCNNVPVNTIKIDDDDNGKLTVEYLKNVRKFLRRINSSHPSSLGLHPLVYFYNKRGNHIYSAILAWVDTIVTIEKTKVSLSSFLFIRSDLEKFLIKYKHFISGVNAKYGSGVKSYKHILKINSIIINQLQKRESEKYIVDSILNEYGFLSESDDVNVTSARFSTDIKSQIYIQETLPKTSTCSHCHGFIHQNSISFDHIVRKQDGGKGNVGNGALMHPYCNTSEKN	not soluble
MKEKKLNLKKHLNTVVTLNSDYLNLLDLMQITNANFPIGTFSHSFGVETYIRKDIVFDGESLIKALLLYMNEQLLHGDLLAIYQIFKLLPKQKINAIWEIDQMINFQGLARETREGQRRIGQQMVKIYNELFNCELLVEYAERIKNKKSYGNPAVAFALLAMHLKIDLKTALYTHLYSTVAALTQNCVRAIPLGQVKGQKIIYQLKHVYFDDIVNKVFTLDFKTDFCKNIPGLEIAQMEHEDTPVRLFMSLEHHHHHH	not soluble
MGSDKIHHHHHHMTKLMPKFEQHRTDFAYCQTITKRSSSAFYTAFSQLPLERAWSIYAVYAFCRTADDLVDVDHDIDGLMALRQSLTTFANGHVPDHPMWRALAVVFETYDMNLDVFFDMLTGQEQDATFKQPQTQQALEDYCYYVAGSVGLMILPMLATNPQSLVKPAVELGSAMQLTNILRDVGEDYQRGRIYLPSKLLAHYQLNPTDLHGPIPSANFIRLWEHEAQIAMNKYEAALTMMPQIDPVARPSLLAATLLYRELLLIAREQHYPILSQRVFLTDERKTQVLNQVSTKVHELALKEA	not soluble
MSTLELHHIGKSYQSVMVLDRIDLHVPPGSRTAIVGPSGSGKTTLLRIIAGFETPDAGKVILQGKAMFDGTTYVPAHKRGIGFVPQDGALFPHFTVAGNIGYGLKGSQRDKERRINELMDMVALDRRLSALWPHEISGGQQQRVALARALAQRPVLMLLDEPFSALDTALRASTRKAVAELLSEANIASILVTHDQTEALSFADQVAVMRAGKLAHVGPPQELYLRPVDEPTATFLGETLMLTAQLGTGLAHCALGQVKVDNPHRRGEARIMLRPEQITLTPLRPEQYNAASCLAKVIAIDFAGFISTLTLQIISSGETIEIKTISREDLHVGLTVGLDIMGQAHIFAE	not soluble
MPYKEKDIEKKYFSIGEVSAMFKVAPSLIRFWETEFDIFKPQKNRRGNRQFTKEDIENFRLIYNLVKERGYTLQGAKEMLKVDRHKSKDKMELLDSLQKVRDFLVDLKKQME	not soluble
SLVLMSETKNELEDLLEKAATEPAHRPAFFRTLLESTVWVPGTAAQGEAVVEDSALDLQHWEKEDGTSVIPFFTSLEALQQVVEDEQAFVVMPVRTLFEMTLGETLFLNAKLPTGKEFMPREISLLIGEEGNSLSSQEVLEGGESLILSEVAEPPVQMIDSLTTLFKTIKPVKRAFICLIKESEEAQPNLLIGIEADGDIEEIIQAAGSVATDTLPGDEPIDICQVKKGEKGISHFITEHIAPFYERRWGGFLRDFKQNRII	soluble
MGSDKIHHHHHHMRWIAPTEKDVAAATLEKRLWAAADELRANSGLKSAEYSQPILGLIFLKFADARFAVRRAELAKVTTGRRGSRVDDPASYHAEGVLFLASEARFSELLEFPEGGRDGKTLGQAVDDAMRAVERDNEQLAGVLPKTYQQFKARPLKELLKAFSAIPVDLEGDSFGKIYEYFLGEFAMAEGQGGGEFYTPQPIVRLMVEILEPFKGRVLDPACGSGGMFVQSARFVSEHKKNGGLAIHGVEKVDTTGQLCRMNLAVHGLEGDIRHGGEINSYYDDPHNAVGRFDFVLANPPFNVDKVDKDRIRDAVGPGRRFPFGVPNVDNANYLWIQLFYSALNESGRAGFVMASSAPDARASEQELRRKLIESRAVDVIISVGSKMFYTVALPCTLWFLDRGKPKDRRDKVLFIDAQHIYRQVDRAHRDWTEAQIGFLANVARLFRREEVDLTFGGAEAKYRLREVFGNKPTYADVAGFCKAATISEIEKQAWSLNPGRYVGAAQGEEVSDEDFRTQFEGLAEEFETLTAEAREFEKVITKTAAEILG	not soluble
EAMFCDFPKINHGILYDEEKYKPFSQVPTGEVFYYSCEYNFVSPSKSFWTRITCAEEGWSPTPKCLRLCFFPFVENGHSESSGQTHLEGDTVQIICNTGYRLQNNENNISCVERGWSTPPKCRSTISAEKCGPPPPIDNGDITSFLLSVYAPGSSVEYQCQNLYQLEGNNQITCRNGQWSEPPKCLDPCVISQEIMEKYNIKLKWTNQQKLYSRTGDIVEFVCKSGYHPTKSHSFRAMCQNGKLVYPSCEEK	not soluble
MDVKWEGFSGVEMEEVKRNVFLTTLEQLKGWARSSSLWPLTFGLACCAIEMMAVGGAHYDLDRFGSFFRASPRQADVMIVSGTVTKKMAPLLRRLYDQMPEPKWVIAMGSCATAGGPYVKSYSVVKGVDQIVPVDVYIPGCPPNPAALIYGIHKLKEKIRLEAKTGKKVL	not soluble
MNLKQLEVFLAVAESGSFSRGAEATFLTQSTVSQHIAALESEVGVRLLDRTSRGALLTEGGKILLEHARKVVAGSREISKVMRRFRGLEEAELRIGGSTIPADYMIPAMLASFLGRHPGVQVTLLQGDSRDILDRIEREDAEVGIIGSRFDEEGFTFTPLGRDEIRLIAAPDHPLAGTGAVPLAELANHGFVFRELGSGTAKSVAEALAGAGLPAEKLHVRACLGSNEAVKQAVAAGLGLSFVSELSVRKELARGELVELPVEGLTIARTFYLVARTGRELSPPAVAFIGELTGTRLA	not soluble
MKVLITSGGTTEPIDNVRGISNFATGSLGKVTAENFLNAGHEVYLLAGLQAKLPEFTDRLTYIPIEGTHDLYEQMKNLVPDMDVVIHSMAVSDYRPIYMTGLENFTDKFSKEELLNFRPEKVGKISSKSDYQIMLLEKTPKIISYIKEWNPNVLLFGFKLLVGVEKSELLSVAREKLLTNHADFILANDLENIHGNDHQAFLVSKNHEITLKTKAEIADRLLKTSEELKND	soluble

Source: the DeepSol protein solubility set
